Here are results for four molecules from patent US20100310509A1 (published 2010).

The chains are these.
T1: soluble human LIFR (leukemia inhibitory factor receptor) (human, UniProt P42702 45-833)
T1 construct: extracellular domain; Bought; also called soluble LIFR
T1 sequence (looked up): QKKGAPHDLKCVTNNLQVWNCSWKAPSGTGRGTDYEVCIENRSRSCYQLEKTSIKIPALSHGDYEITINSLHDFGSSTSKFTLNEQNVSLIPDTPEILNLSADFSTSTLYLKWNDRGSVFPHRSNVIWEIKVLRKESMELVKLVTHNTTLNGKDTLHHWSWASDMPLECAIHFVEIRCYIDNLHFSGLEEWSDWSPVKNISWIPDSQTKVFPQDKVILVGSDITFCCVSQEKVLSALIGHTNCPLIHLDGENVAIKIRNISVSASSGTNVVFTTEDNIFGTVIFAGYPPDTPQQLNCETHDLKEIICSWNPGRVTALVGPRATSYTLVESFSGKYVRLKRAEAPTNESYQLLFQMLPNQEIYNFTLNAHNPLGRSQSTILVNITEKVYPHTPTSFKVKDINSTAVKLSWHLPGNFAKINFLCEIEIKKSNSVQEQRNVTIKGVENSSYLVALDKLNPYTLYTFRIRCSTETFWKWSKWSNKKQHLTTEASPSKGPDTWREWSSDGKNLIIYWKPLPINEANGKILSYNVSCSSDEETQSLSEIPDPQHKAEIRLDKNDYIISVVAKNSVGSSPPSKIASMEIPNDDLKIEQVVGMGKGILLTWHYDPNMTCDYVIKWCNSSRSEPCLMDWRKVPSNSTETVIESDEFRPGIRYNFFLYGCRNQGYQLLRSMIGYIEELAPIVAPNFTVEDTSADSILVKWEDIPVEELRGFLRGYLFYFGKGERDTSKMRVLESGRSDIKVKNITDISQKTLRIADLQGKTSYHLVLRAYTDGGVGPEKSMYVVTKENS

T2: soluble gp130 (R&D Systems # 228-GP-050/CF) (UniProt P40189 23-619, limits assumed)
T2 construct: extracellular domain; Bought
T2 sequence (looked up): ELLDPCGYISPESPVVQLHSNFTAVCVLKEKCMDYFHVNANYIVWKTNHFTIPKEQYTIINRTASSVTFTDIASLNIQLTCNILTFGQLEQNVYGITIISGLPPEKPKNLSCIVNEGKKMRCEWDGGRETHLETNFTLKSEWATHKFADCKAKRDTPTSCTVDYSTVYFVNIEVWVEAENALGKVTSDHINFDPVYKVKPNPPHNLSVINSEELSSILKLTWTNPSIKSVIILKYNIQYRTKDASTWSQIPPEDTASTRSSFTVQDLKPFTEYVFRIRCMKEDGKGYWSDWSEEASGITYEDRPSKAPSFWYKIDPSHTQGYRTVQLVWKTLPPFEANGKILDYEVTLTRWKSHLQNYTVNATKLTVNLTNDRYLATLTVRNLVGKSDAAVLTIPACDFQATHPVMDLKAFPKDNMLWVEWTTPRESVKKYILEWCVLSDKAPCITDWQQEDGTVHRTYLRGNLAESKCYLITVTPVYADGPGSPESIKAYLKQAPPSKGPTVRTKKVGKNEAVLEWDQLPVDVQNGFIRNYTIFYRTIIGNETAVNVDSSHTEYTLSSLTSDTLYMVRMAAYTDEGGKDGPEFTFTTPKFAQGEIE

B1: human leukemia inhibitory factor (LIF) (ligand)
chain: not shown
notes: Purified recombinant protein; also called hLIF
B2: OSM-WT ('AGA' modified human Oncostatin M, referred to as wild-type OSM) (ligand)
chain: AAIGSCSKEYRVLLGQLQKQTDLMQDTSRLLDPYIRIQGLDVPKLREHCRERPGAFPSEETLRGLGRRGFLQTLNATLGCVLHRLADLEQRLPKAQDLERSGLNIEDLEKLQMARPNILGLRNNIYCMAQLLDNSDTAEPTKAGAGASQPPTPTPASDAFQRKLEGCRFLHGYHRFMHSVGRVFSKWGESPN
notes: also called hOSM with AGA modification; not shown: N-terminal FLAG tag left after thrombin removal of GST
B3: OSM-M1 (OSM with BC loop truncated from 12 to 7 amino acids) (ligand)
chain: AAIGSCSKEYRVLLGQLQKQTDLMQDTSRLLDPYIRIQGLDVPKLREHCRERPGAFPSEETLRGLGRRGFLQTLNATLGCVLHRLADLEQRLGAPSGLNIEDLEKLQMARPNILGLRNNIYCMAQLLDNSDTAEPTKAGAGASQPPTPTPASDAFQRKLEGCRFLHGYHRFMHSVGRVFSKWGESPN
notes: Made from the 'AGA' modified OSM template; lacks the thrombin site; not shown: N-terminal FLAG tag left after thrombin removal of GST
B4: OSM-M2 (OSM with BC loop truncated from 12 to 4 amino acids) (ligand)
chain: AAIGSCSKEYRVLLGQLQKQTDLMQDTSRLLDPYIRIQGLDVPKLREHCRERPGAFPSEETLRGLGRRGFLQTLNATLGCVLHRLADLEQRLGGGNIEDLEKLQMARPNILGLRNNIYCMAQLLDNSDTAEPTKAGAGASQPPTPTPASDAFQRKLEGCRFLHGYHRFMHSVGRVFSKWGESPN
notes: as for B3

Chain of LIFR:gp130 receptor complex on human retinal Müller cells (P42702 45-1097, one chain of several): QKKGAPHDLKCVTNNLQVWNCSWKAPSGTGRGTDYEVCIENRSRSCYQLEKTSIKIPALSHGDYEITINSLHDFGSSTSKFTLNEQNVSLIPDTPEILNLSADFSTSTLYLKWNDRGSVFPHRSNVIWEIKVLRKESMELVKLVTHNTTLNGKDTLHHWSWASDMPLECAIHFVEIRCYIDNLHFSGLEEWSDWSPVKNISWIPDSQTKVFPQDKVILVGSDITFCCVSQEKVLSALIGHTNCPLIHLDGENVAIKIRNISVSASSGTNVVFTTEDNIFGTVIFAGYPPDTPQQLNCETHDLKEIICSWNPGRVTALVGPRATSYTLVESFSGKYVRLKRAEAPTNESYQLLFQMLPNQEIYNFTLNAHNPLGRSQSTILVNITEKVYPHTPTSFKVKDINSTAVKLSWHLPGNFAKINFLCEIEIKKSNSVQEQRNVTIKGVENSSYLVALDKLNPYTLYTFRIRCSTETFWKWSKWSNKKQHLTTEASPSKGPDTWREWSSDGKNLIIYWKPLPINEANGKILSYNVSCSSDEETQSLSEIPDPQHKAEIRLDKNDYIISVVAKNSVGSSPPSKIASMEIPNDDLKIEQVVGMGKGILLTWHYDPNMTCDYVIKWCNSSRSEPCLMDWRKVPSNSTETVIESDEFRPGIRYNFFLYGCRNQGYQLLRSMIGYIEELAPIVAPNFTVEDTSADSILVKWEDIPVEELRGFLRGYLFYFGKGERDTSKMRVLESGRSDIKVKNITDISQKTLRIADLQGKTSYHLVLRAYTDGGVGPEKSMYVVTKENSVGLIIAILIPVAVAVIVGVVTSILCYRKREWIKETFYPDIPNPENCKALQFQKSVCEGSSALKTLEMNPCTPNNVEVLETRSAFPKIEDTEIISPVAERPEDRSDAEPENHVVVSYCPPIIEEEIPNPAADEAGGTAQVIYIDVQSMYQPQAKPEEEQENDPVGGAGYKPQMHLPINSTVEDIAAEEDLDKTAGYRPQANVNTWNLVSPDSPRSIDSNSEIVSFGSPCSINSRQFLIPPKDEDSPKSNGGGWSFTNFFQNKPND

The first experiment addresses T1, soluble human LIFR (leukemia inhibitory …). Put plainly: SPR (SensiQ), cytokine immobilised, soluble LIFR as analyte, 1:1 model. The method, then:
(§1) Surface Plasmon Resonance (SPR): Kinetic parameters of the interactions between receptor domains and the cytokines LIF, OSM-WT, OSM-M1 or OSM-M2 were analyzed by SPR using the SENSIQ® system (ICX Technologies, Oklahoma City, Okla.) as described by the manufacturer protocol. Briefly, a carboxyl sensor with two channels was installed in SENSIQ® and allowed to thermally equilibrate for about 15 minutes. The channels were initially cleaned with a 3 minute injection of 0.1 M HCl. An activation solution of 2 mM 1-Ethyl-3-[3-dimethylaminopropyl]carbodiimide hydrochloride (EDC) and 0.5 mM N-hydroxysulfo succinimide (NHS) was prepared in deionized water immediately before injection. Activation solution was injected over both channels for approximately 3 minutes followed by a 10 minute injection of 50 μg/mL cytokine (LIF, OSM-WT, OSM-M1 or OSM-M2) in 10 mM acetate buffer, pH 5.0, over channel 1. […] Unreacted NHS esters were capped with a 3 minute injection of 1 M ethanolamine, pH 8.0, over both channels. […] A concentration series of soluble LIFR (# 249-LR-050/CF, R&D Systems, Minneapolis, Minn.), soluble OSMR (# 4389-OR-50, R&D Systems, Minneapolis, Minn.) or soluble gp130 (# 228-GP-050/CF, R&D Systems, Minneapolis, Minn.) in running buffer (10 mM HEPES pH 7.4, 150 mM NaCl, 3.4 mM EDTA, 0.005% Tween-20) were injected over both channels at a flow rate of 25 μl/min. Following a dissociation period of 3 minutes, the surfaces were regenerated by injecting 10 mM NaOH for 30 seconds. Rate constants for association (kₐ) and dissociation (kd) rates were derived by global analysis of the response curves fit to a 1:1 kinetic model (Equations 1 and 2) using QDat software (BioLogic Software, Ltd. Knoxville Tenn. and Nomadics, Inc. Stillwater, Okla.) using 1:1 stoichiometry.
(§2) Reducing the size of the BC loop improves OSM's affinity towards LIFR and OSMR. […] To directly measure the binding kinetics of these ligand-receptor interactions, surface plasmon resonance (SPR) was used.
Usually Kd stands for a measure of binding affinity in units of concentration. Low values mean a tighter complex, high ones a looser complex. The koff is the first-order rate constant of dissociation. The low end stands for slow dissociation, the high end for fast dissociation. As usually defined, the kon is the rate constant with which the complex forms. High values mean fast association, low ones slow association. Take B1: binding was characterised by a dissociation constant (Kd) of 3.1 nM, the koff came to 0.0023 s⁻¹ and the kon is 740000 M⁻¹ s⁻¹.
On the same counts, the results for B2 are 43.8 nM, 0.004 s⁻¹ and 91000 M⁻¹ s⁻¹.
B3 gave a Kd of 7.62 nM, a koff of 0.00252 s⁻¹ and a kon of 331000 M⁻¹ s⁻¹.
Regarding B4, the Kd was found to be 2.74 nM, the koff turned out to be 0.00356 s⁻¹ and the kon was found to be 1.3e+06 M⁻¹ s⁻¹.

For a further experiment, the target named is T2, soluble gp130 (R&D Systems # …). The experiment in a line: SPR (SensiQ), cytokine immobilised, soluble gp130 as analyte, 1:1 model. Here is the method: as §1, §2
B1: the affinity, expressed as Kd, was 72.4 nM; the koff came to 0.00533 s⁻¹; the kon was found to be 74000 M⁻¹ s⁻¹.
Taken in the same sequence, the figures for B2 were 22.7 nM, 0.0047 s⁻¹ and 207000 M⁻¹ s⁻¹.
Molecule B3 registered a Kd of 26.3 nM, a koff of 0.00534 s⁻¹ and a kon of 203000 M⁻¹ s⁻¹.
Taken in the same sequence, the figures for B4 were 21.5 nM, 0.00487 s⁻¹ and 227000 M⁻¹ s⁻¹.

A further experiment concerns the target LIFR:gp130 receptor complex on human retinal Müller cells (human, UniProt P42702 45-1097; P40189 23-918). The experiment in a line: cell-based or functional assay.
Take B3: the “concentration needed for receptor activation, against native OSM” value (shortened to “concentration needed”) stood at 3 fold lower concentration.
As to B4, the “concentration needed” value was 3 fold lower concentration.

The target of a further experiment is OSMR:gp130 receptor complex on A375 melanoma cells (UniProt Q99650 28-979; P40189 23-918, limits assumed). Put plainly: cell-based or functional assay.
In the case of B3, the “concentration needed” value turned out to be 3 fold lower concentration.
On the same count and under the same terms, the figure for B4 is 3 fold lower concentration.
